The text below walks through data of US20220119534A1 (DRAGONFLY THERAPEUTICS, published 2022).

“And” between values parts separate entries of the source, which are not always exact repeats. Equal values may be shown once.

Assay [1] concerns the target T1, Human CLEC12A-His (recombinant, K244 WT) (human, UniProt Q5QGZ9 65-265).
T1 construct: Made in house (Dragonfly Tx); also called hCLEC12A; hCLEC12A-His; not shown: His tag
T1 sequence: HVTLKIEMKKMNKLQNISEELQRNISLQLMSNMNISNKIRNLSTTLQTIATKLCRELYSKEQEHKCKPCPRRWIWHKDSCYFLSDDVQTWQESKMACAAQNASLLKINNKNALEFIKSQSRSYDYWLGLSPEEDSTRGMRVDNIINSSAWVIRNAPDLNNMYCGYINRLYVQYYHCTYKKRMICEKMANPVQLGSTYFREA
Description: SPR, two-state fit; after pH 5.0, 40C, 2 wks.

The target of assay [2] is T1, Human CLEC12A-His (recombinant, K244 WT). Description: SPR, two-state fit (ka1); control sample.
For assay [3], the target named is T2, mFc-hNKG2D (recombinant mFc-tagged human NKG2D dimer) (human, UniProt P26718 73-216).
T2 construct: extracellular domain; Made in house; not shown: mouse Fc tag
T2 sequence (looked up): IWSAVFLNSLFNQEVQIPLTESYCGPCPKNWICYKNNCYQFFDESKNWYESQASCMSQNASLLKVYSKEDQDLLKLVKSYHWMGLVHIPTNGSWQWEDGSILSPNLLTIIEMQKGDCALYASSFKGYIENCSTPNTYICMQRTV
Briefly: SPR; after forced oxidation.

Assay [4] concerns the target T3, Human CD16a V158 (FcγRIIIa V158) (human, UniProt P08637 17-208, biotinylated).
T3 construct: Bought recombinant receptor; also called hCD16aV; hFcγRIIIa V158
Description: SPR; after forced oxidation.

Assay [5] concerns the target T1, Human CLEC12A-His (recombinant, K244 WT). Briefly: SPR, two-state fit; control sample.
The target of assay [6] is T2, mFc-hNKG2D (recombinant mFc-tagged …). Briefly: SPR; control sample.
For assay [7], the target named is T3, Human CD16a V158 (FcγRIIIa V158). Briefly: SPR; control sample.
A further assay deals with T4, mFc-hNKG2D (human, UniProt P26718 73-216).
T4 construct: extracellular domain; Recombinant mFc-tagged NKG2D dimer, made in house; also called human NKG2D; not shown: mouse Fc tag
T4 sequence (looked up): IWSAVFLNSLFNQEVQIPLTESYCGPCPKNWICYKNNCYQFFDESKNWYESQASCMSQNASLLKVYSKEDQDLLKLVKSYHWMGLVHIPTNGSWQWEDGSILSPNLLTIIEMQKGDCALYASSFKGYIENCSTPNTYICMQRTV
Briefly: SPR, 37 C, mFc-hNKG2D captured, 1:1 kinetic fit.

A further assay concerns the target T5, Cynomolgus CD16 (cynomolgus monkey, UniProt Q8SPW2 17-208, biotinylated).
T5 construct: Bought recombinant receptor; also called cFcγRIII; Cynomolgus FcγRIII
Briefly: SPR, steady state fit.

A further assay addresses T6, Human CD16a F158 (human, UniProt P08637 17-208, biotinylated).
T6 construct: Bought recombinant receptor; also called hFcγRIIIa F158
Briefly: SPR, steady state fit.

The target in another assay is T7, recombinant human FcRn (human, UniProt P55899 24-297; P61769 21-119).
T7 construct: also called hFcRn
T7 sequence (P55899 24-297 limits assumed, chain 1 of 2): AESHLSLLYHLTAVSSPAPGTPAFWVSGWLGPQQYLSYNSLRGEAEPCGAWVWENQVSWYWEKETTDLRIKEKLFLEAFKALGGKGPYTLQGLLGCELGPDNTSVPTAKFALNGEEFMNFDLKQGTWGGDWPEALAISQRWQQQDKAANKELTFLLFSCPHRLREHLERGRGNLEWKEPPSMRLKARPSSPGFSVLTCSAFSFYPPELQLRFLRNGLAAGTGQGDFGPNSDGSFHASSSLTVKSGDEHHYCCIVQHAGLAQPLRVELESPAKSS
T7 sequence (P61769 21-119 limits assumed, chain 2 of 2): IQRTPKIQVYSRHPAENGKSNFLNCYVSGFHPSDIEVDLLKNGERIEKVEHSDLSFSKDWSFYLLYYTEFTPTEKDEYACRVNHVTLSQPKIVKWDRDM
Briefly: SPR 25C, pH 6.0, steady state; pH 6.0; fourth replicate.

The target in the next assay is T8, recombinant human CD32b (human, UniProt P31994 46-217, limits assumed, biotinylated).
T8 construct: also called FcγRIIb
T8 sequence (looked up): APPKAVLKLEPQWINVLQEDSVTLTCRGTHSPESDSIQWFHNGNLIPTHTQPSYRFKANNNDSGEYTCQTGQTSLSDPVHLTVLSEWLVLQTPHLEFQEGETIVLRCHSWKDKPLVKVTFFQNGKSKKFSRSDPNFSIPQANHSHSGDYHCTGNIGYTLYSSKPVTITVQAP
Description: SPR 25C, steady state, average.

Assay [8] deals with T9, recombinant human CD16a V158 (human, UniProt P08637 17-208, biotinylated).
T9 construct: also called FcγRIIIa V158; hCD16aV
T9 sequence (P08637 17-208 F176V limits assumed): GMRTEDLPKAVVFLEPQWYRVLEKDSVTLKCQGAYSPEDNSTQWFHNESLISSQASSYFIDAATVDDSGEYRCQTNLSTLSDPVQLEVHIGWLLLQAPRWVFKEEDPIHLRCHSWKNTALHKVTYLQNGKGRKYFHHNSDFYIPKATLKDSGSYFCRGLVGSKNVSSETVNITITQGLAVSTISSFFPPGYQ
Description: SPR 25C, kinetic fit, average.

T5 sequence (Q8SPW2 17-208 limits assumed): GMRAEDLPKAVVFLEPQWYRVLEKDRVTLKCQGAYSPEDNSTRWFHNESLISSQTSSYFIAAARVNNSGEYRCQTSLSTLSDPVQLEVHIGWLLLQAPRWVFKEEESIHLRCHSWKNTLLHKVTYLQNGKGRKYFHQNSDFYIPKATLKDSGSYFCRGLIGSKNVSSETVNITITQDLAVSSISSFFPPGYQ
T6 sequence (P08637 17-208 limits assumed): as the sequence (P08637 17-208 F176V limits assumed) above, with V160F counted along it
T3 sequence (P08637 17-208 F176V limits assumed): as the sequence (P08637 17-208 F176V limits assumed) above

B1: AB0089 TriNKET (bispecific antibody, human IgG1, kappa)
chain: QLQLQESGPGLVKPSETLSLTCTVSGFSLTNYGLHWIRQPPGKCLEWIGVIWVGGATDYNPSLKSRVTISVDTSKNQFSLKLSSVQAADTAVYYCAKGDYGDTLDYWGQGTLVTVSSGGGGSGGGGSGGGGSGGGGSDIQMTQSPSSLSASVGDRVTITCHASQNINFWLSWYQQKPGKAPKLLIYEASNLHTGVPSRFSGSGSGTDFTLTISSLQPEDFATYYCQQSHSYPLTFGCGTKLEIKGSDKTHTCPPCPAPELLGGPSVFLFPPKPKDTLMISRTPEVTCVVVDVSHEDPEVKFNWYVDGVEVHNAKTKPREEQYNSTYRVVSVLTVLHQDWLNGKEYKCKVSNKALPAPIEKTISKAKGQPREPRVYTLPPCRDELTKNQVSLTCLVKGFYPSDIAVEWESNGQPENNYKTTPPVLVSDGSFTLYSKLTVDKSRWQQGNVFSCSVMHEALHNHYTQKSLSLSPG
heavy: EVQLVESGGGLVKPGGSLRLSCAASGFTFSSYSMNWVRQAPGKGLEWVSSISSSSSYIYYADSVKGRFTISRDNAKNSLYLQMNSLRAEDTAVYYCARGAPIGAAAGWFDPWGQGTLVTVSSASTKGPSVFPLAPSSKSTSGGTAALGCLVKDYFPEPVTVSWNSGALTSGVHTFPAVLQSSGLYSLSSVVTVPSSSLGTQTYICNVNHKPSNTKVDKKVEPKSCDKTHTCPPCPAPELLGGPSVFLFPPKPKDTLMISRTPEVTCVVVDVSHEDPEVKFNWYVDGVEVHNAKTKPREEQYNSTYRVVSVLTVLHQDWLNGKEYKCKVSNKALPAPIEKTISKAKGQPREPQVCTLPPSRDELTENQVSLTCLVKGFYPSDIAVEWESNGQPENNYKTTPPVLDSDGSFFLYSWLTVDKSRWQQGNVFSCSVMHEALHNHYTQKSLSLSPG
light: DIQMTQSPSSVSASVGDRVTITCRASQGISSWLAWYQQKPGKAPKLLIYAASSLQSGVPSRFSGSGSGTDFTLTISSLQPEDFATYYCQQGVSFPRTFGGGTKVEIKRTVAAPSVFIFPPSDEQLKSGTASVVCLLNNFYPREAKVQWKVDNALQSGNSQESVTEQDSKDSTYSLSSTLTLSKADYEKHKVYACEVTHQGLSSPVTKSFNRGEC
notes: F3' format heterodimer of three chains; human IgG1 Fc with EW-RVT and Y349C/S354C mutations; also called AB0089 Lot AB0089-002; CLEC12A TriNKET AB0089
Consider B1, for which the Kd in assay [1] was 1 nM; in assay [3], 762 nM; in assay [4], 320 nM; in [5], 0.9 nM; in assay [6], 797 nM; in assay [7] it was 322 nM. Moreover, the kon in [2] is 1.01e+07 M⁻¹ s⁻¹; in assay [3], 171000 M⁻¹ s⁻¹; in [4], 86500 M⁻¹ s⁻¹; in assay [6], 169000 M⁻¹ s⁻¹; in assay [7] it was 86400 M⁻¹ s⁻¹. Moreover, the koff turned out to be 0.13 s⁻¹ in assay [3], 0.0277 s⁻¹ in assay [4], 0.135 s⁻¹ in assay [6] and 0.0278 s⁻¹ in [7].

B2: AB0192 TriNKET (other)
chain: EVQLVESGGGVVQPGGSLRLSCAASGFTFNAFGMHWVRQAPGKCLEWVAFISSGSTSIYYANTVKGRFTISRDNSKNTLYLQMNSLRAEDTAVYYCARDGYPTGGAMDYWGQGTSVTVSSGGGGSGGGGSGGGGSGGGGSDIQMTQSPSSLSASVGDRVTITCKASQDIYNYLSWFQQKPGKAPKPLIYRANILVSGVPSRFSGSGSGQDYTFTISSLQPEDIATYYCLQFDAFPFTFGCGTKLEIKGSDKTHTCPPCPAPELLGGPSVFLFPPKPKDTLMISRTPEVTCVVVDVSHEDPEVKFNWYVDGVEVHNAKTKPREEQYNSTYRVVSVLTVLHQDWLNGKEYKCKVSNKALPAPIEKTISKAKGQPREPRVYTLPPCRDELTKNQVSLTCLVKGFYPSDIAVEWESNGQPENNYKTTPPVLVSDGSFTLYSKLTVDKSRWQQGNVFSCSVMHEALHNHYTQKSLSLSPG
heavy: EVQLVESGGGLVKPGGSLRLSCAASGFTFSSYSMNWVRQAPGKGLEWVSSISSSSSYIYYADSVKGRFTISRDNAKNSLYLQMNSLRAEDTAVYYCARGAPIGAAAGWFDPWGQGTLVTVSSASTKGPSVFPLAPSSKSTSGGTAALGCLVKDYFPEPVTVSWNSGALTSGVHTFPAVLQSSGLYSLSSVVTVPSSSLGTQTYICNVNHKPSNTKVDKKVEPKSCDKTHTCPPCPAPELLGGPSVFLFPPKPKDTLMISRTPEVTCVVVDVSHEDPEVKFNWYVDGVEVHNAKTKPREEQYNSTYRVVSVLTVLHQDWLNGKEYKCKVSNKALPAPIEKTISKAKGQPREPQVCTLPPSRDELTENQVSLTCLVKGFYPSDIAVEWESNGQPENNYKTTPPVLDSDGSFFLYSWLTVDKSRWQQGNVFSCSVMHEALHNHYTQKSLSLSPG
light: DIQMTQSPSSVSASVGDRVTITCRASQGISSWLAWYQQKPGKAPKLLIYAASSLQSGVPSRFSGSGSGTDFTLTISSLQPEDFATYYCQQGVSFPRTFGGGTKVEIKRTVAAPSVFIFPPSDEQLKSGTASVVCLLNNFYPREAKVQWKVDNALQSGNSQESVTEQDSKDSTYSLSSTLTLSKADYEKHKVYACEVTHQGLSSPVTKSFNRGEC
notes: the condition stands under assay; also called AB0192 Lot AB0192-005
On to B2, for which, in the assay with mFc-hNKG2D, the koff was 0.143 s⁻¹ and 0.153 s⁻¹; the kon is 186000 M⁻¹ s⁻¹ and 196000 M⁻¹ s⁻¹ and 181000 M⁻¹ s⁻¹. Besides, the dissociation constant (Kd) with Cynomolgus CD16 was 203 nM and 205 nM and 204 nM. Also, in the assay with Human CD16a F158, the Kd was 773 nM and 634 nM and 693 nM and 620 nM.

B3: F3'-1602 TriNKET (other)
chain: QLQLQESGPGLVKPSETLSLTCTVSGFSLTNYGLHWIRQPPGKCLEWIGVIWSGGKTDYNPSLKSRVTISKDTSKNQFSLKLSSVQAADTAVYYCAKYDYDDSLDYWGQGTLVTVSSGGGGSGGGGSGGGGSGGGGSDIQMTQSPSSLSASVGDRVTITCHASQNINFWLSWYQQKPGKAPKLLIYEASNLHTGVPSRFSGSGSGTRFTLTISSLQPEDIATYYCQQSHSYPLTFGCGTKLEIKGSDKTHTCPPCPAPELLGGPSVFLFPPKPKDTLMISRTPEVTCVVVDVSHEDPEVKFNWYVDGVEVHNAKTKPREEQYNSTYRVVSVLTVLHQDWLNGKEYKCKVSNKALPAPIEKTISKAKGQPREPRVYTLPPCRDELTKNQVSLTCLVKGFYPSDIAVEWESNGQPENNYKTTPPVLVSDGSFTLYSKLTVDKSRWQQGNVFSCSVMHEALHNHYTQKSLSLSPG
heavy: EVQLVESGGGLVKPGGSLRLSCAASGFTFSSYSMNWVRQAPGKGLEWVSSISSSSSYIYYADSVKGRFTISRDNAKNSLYLQMNSLRAEDTAVYYCARGAPIGAAAGWFDPWGQGTLVTVSSASTKGPSVFPLAPSSKSTSGGTAALGCLVKDYFPEPVTVSWNSGALTSGVHTFPAVLQSSGLYSLSSVVTVPSSSLGTQTYICNVNHKPSNTKVDKKVEPKSCDKTHTCPPCPAPELLGGPSVFLFPPKPKDTLMISRTPEVTCVVVDVSHEDPEVKFNWYVDGVEVHNAKTKPREEQYNSTYRVVSVLTVLHQDWLNGKEYKCKVSNKALPAPIEKTISKAKGQPREPQVCTLPPSRDELTENQVSLTCLVKGFYPSDIAVEWESNGQPENNYKTTPPVLDSDGSFFLYSWLTVDKSRWQQGNVFSCSVMHEALHNHYTQKSLSLSPG
light: DIQMTQSPSSVSASVGDRVTITCRASQGISSWLAWYQQKPGKAPKLLIYAASSLQSGVPSRFSGSGSGTDFTLTISSLQPEDFATYYCQQGVSFPRTFGGGTKVEIKRTVAAPSVFIFPPSDEQLKSGTASVVCLLNNFYPREAKVQWKVDNALQSGNSQESVTEQDSKDSTYSLSSTLTLSKADYEKHKVYACEVTHQGLSSPVTKSFNRGEC
notes: CLEC12A scFv-Fc, NKG2D A49MI Fab-Fc, human IgG1 Fc; also called AB0237
With B3, the Kd with recombinant human FcRn was found to be 1600 nM. For the same molecule, the Kd with recombinant human CD32b was 6600 nM. Also, in assay [8], the Kd was 238 nM, the off-rate constant (koff) amounted to 0.022 s⁻¹ and the kon was determined as 94000 M⁻¹ s⁻¹.
